1 molecule from paper PMC7338525, “Insights into the structure and function of Est3 from the Hansenula polymorpha telomerase” can be followed below.

This data set addresses T1, HpEst3 (Hansenula polymorpha, UniProt W1QJK4 1-175).
T1 sequence: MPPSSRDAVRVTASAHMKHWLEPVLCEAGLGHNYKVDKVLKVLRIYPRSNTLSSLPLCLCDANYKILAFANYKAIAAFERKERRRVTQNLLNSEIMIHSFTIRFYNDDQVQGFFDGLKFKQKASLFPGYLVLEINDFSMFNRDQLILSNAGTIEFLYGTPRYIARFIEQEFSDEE
The experiment in a line: NMR titration (15N-HpEst3); Est3:DNA up to 1:5; non-specific binding, signal broadening without shift changes; NMR: 100 mM KCl, 20 mM potassium phosphate pH 6.5, 0.02% NaN3, 3 mM DTT, 25 C; EMSA: 20 mM potassium phosphate pH 6.5, 100 mM KCl, 3 mM DTT, 8% native PAGE. The conditions noted are these: protein: recombinant.

With GGGTGGCGGGGTGGCGGGGTGGCGGGGTGGCG (ssDNA) [ssDNA G4 (four telomeric repeats)], the binding result is “binds”.
